Assay results: article PMC9117659, “Phase transition and remodeling complex assembly are important for SS18-SSX oncogenic activity in synovial sarcomas” (Nature Communications, 2022)

B1: Human SS18 (residues 1-387), purified recombinant [human] / BRG1^(1-282), N-terminal 282-residue fragment of BRG1 [human] (parent complex)
chain 1: MSVAFAAPRQRGKGEITPAAIQKMLDDNNHLIQCIMDSQNKGKTSECSQYQQMLHTNLVYLATIADSNQNMQSLLPAPPTQNMPMGPGGMNQSGPPPPPRSHNMPSDGMVGGGPPAPHMQNQMNGQMPGPNHMPMQGPGPNQLNMTNSSMNMPSSSHGSMGGYNHSVPSSQSMPVQNQMTMSQGQPMGNYGPRPNMSMQPNQGPMMHQQPPSQQYNMPQGGGQHYQGQQPPMGMMGQVNQGNHMMGQRQIPPYRPPQQGPPQQYSGQEDYYGDQYSHGGQGPPEGMNQQYYPDGNSQYGQQQDAYQGPPPQQGYPPQQQQYPGQQGYPGQQQGYGPSQGGPGPQYPNYPQGQGQQYGGYRPTQPGPPQPPQQRPYGYDQGQYGNYQQ
chain 2: MSTPDPPLGGTPRPGPSPGPGPSPGAMLGPSPGPSPGSAHSMMGPSPGPPSAGHPIPTQGPGGYPQDNMHQMHKPMESMHEKGMSDDPRYNQMKGMGMRSGGHAGMGPPPSPMDQHSQGYPSPLGGSEHASSPVPASGPSSGPQMSSGPGGAPLDGADPQALGQQNRGPTPFNQNQLHQLRAQIMAYKMLARGQPLPDHLQMAVQGKRPMPGMQQQMPTLPPPSVSATGPGPGPGPGPGPGPGPAPPNYSRPHGMGGPNMPPPGPSGVPPGMPGQPPGGPPK

Variants of: B1
Assay: sedimentation assay; 60 µM each protein; parent: 65; read off a plot

Variant | screen value
chain 1 MSVAFAAPRQRGKGEITPAAIQKMLDDNNHLEQCIMDSQNKGKTSECSQYQQMEHTNLVYLATIEDSNQNMQSLLPAPPTQNMPMGPGGMNQSGPPPPPRSHNMPSDGMVGGGPPAPHMQNQMNGQMPGPNHMPMQGPGPNQLNMTNSSMNMPSSSHGSMGGYNHSVPSSQSMPVQNQMTMSQGQPMGNYGPRPNMSMQPNQGPMMHQQPPSQQYNMPQGGGQHYQGQQPPMGMMGQVNQGNHMMGQRQIPPYRPPQQGPPQQYSGQEDYYGDQYSHGGQGPPEGMNQQYYPDGNSQYGQQQDAYQGPPPQQGYPPQQQQYPGQQGYPGQQQGYGPSQGGPGPQYPNYPQGQGQQYGGYRPTQPGPPQPPQQRPYGYDQGQYGNYQQ [chain 1 I32E, chain 1 L54E, chain 1 A65E] | ~6%
